Among the data in the supplement of paper PMC10567573 are protein stability index values, retold here.

B1: ATE1 (parent)
chain: YGSFHQQYWLDGKIIAVGVIDILP
B2: KCNA1 (parent)
chain: LKASMRELGLLIFFLFIGVILFSS
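Also: lentivirally expressed fusions sorted by FACS into six bins by GFP to DsRed ratio, PSI derived from sequencing read proportions per bin multiplied by bin number.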

The variants in the first data set derive from B1. Nature of the data set: protein stability index of a GFP-peptide fusion (GPS, HEK-293T) (PSI 1-6); higher = more stable. The conditions noted are these: c terminus: a fixed tail appended.
Turning to YGSFHQQYWLDSKIIAVGVIDILP [G12S], the protein stability index stood at 1.91.
Still for that read-out and setting: for YGSFHQQYWLDIKIIAVGVIDILP [G12I] the value was 3.89.
Consider YGSFHQQYWLDVKIIAVGVIDILP [G12V], for which the protein stability index is 2.04.
With YGSFHQQYWLDRKIIAVGVIDILP [G12R], the protein stability index came out at 3.98.
On the same count and under the same terms, as for YGSFHQQYWLDTKIIAVGVIDILP [G12T], the figure is 3.42; as for YGSFHQQYWLDNKIIAVGVIDILP [G12N], 2.45.
The same measure, in the same setting: for YGSFHQQYWLDKKIIAVGVIDILP [G12K] the value was 2.14.
For YGSFHQQYWLDGKIIFVGVIDILP [A16F], the protein stability index turned out to be 2.21.
Still for that read-out and setting: for YGSFHQQYWLDGKIIQVGVIDILP [A16Q] the value was 3.07.
Same read-out and setting: as for YGSFHQQYWLDGKIISVGVIDILP [A16S], the figure is 1.87; as for YGSFHQQYWLDGKIIGVGVIDILP [A16G], 2.13; as for YGSFHQQYWLDGKIIRVGVIDILP [A16R], 3.32.
With YGSFHQQYWLDGKIIYVGVIDILP [A16Y], the protein stability index turned out to be 2.13.
Regarding YGSFHQQYWLDGKIIPVGVIDILP [A16P], the protein stability index was found to be 2.38.
On the same count and under the same terms, for YGSFHQQYWLDGKIIVVGVIDILP [A16V] the value was 3.31; for YGSFHQQYWLDGKIIMVGVIDILP [A16M], 2; for YGSFHQQYWLDGKIICVGVIDILP [A16C], 1.6.
Turning to YGSFHQQYWLDGKIITVGVIDILP [A16T], the protein stability index is 2.7.
Still for that read-out and setting: for YGSFHQQYWLDGKIIAVRVIDILP [G18R] the value was 3.77.
Still for that read-out and setting: as for YGSFHQQYWLDGKIIAVAVIDILP [G18A], the figure is 3.13; as for YGSFHQQYWLDGKIIAVEVIDILP [G18E], 2.28; as for YGSFHQQYWLDGKIIAVWVIDILP [G18W], 2.81.
In the case of YGSFHQQYWLDGKIIAVQVIDILP [G18Q], the protein stability index worked out at 3.22.
As for YGSFHQQYWLDGKIIAVFVIDILP [G18F], the protein stability index came to 2.53.
Take YGSFHQQYWLDGKIIAVNVIDILP [G18N]: the protein stability index is 2.31.
YGSFHQQYWLDGKIIAVTVIDILP [G18T]: the protein stability index came out at 4.01.
As to YGSFHQQYWLDGKIIAVIVIDILP [G18I], the protein stability index was determined as 3.47.
On to YGSFHQQYWLDGKIIAVKVIDILP [G18K], for which the protein stability index stood at 3.6.
Consider YGSFHQQYWLDGKIIAVCVIDILP [G18C], for which the protein stability index amounted to 4.11.
As to YGSFHQQYWLDGKIIAVPVIDILP [G18P], the protein stability index was 2.39.
For the variant YGSFHQQYWLDGKIIAVYVIDILP [G18Y], the protein stability index was determined as 1.96.
Same read-out and setting: as for YGSFHQQYWLDGKIIAVLVIDILP [G18L], the figure is 1.9; as for YGSFHQQYWLDGKIIAVSVIDILP [G18S], 3.06; as for YGSFHQQYWLDGKIIAVGVIDIPP [L23P], 2.72.
In the case of YGSFHQQYWLDGKIIAVGVIDIDP [L23D], the protein stability index was 2.88.
The same measure, in the same setting: for YGSFHQQYWLDGKIIAVGVIDIAP [L23A] the value was 4.34.
Take YGSFHQQYWLDGKIIAVGVIDIHP [L23H]: the protein stability index stood at 2.
As to YGSFHQQYWLDGKIIAVGVIDIQP [L23Q], the protein stability index was 3.64.
Same read-out and setting: for YGSFHQQYWLDGKIIAVGVIDIEP [L23E] the value was 1.4; for YGSFHQQYWLDGKIIAVGVIDIMP [L23M], 1.78.
Regarding YGSFHQQYWLDGKIIAVGVIDIGP [L23G], the protein stability index worked out at 2.94.
Still for that read-out and setting: for YGSFHQQYWLDGKIIAVGVIDITP [L23T] the value was 2.53; for YGSFHQQYWLDGKIIAVGVIDIIP [L23I], 2.34; for YGSFHQQYWLDGKIIAVGVIDISP [L23S], 2.66.
As for YGSFHQQYWLDGKIIAVGVIDIKP [L23K], the protein stability index stood at 2.49.
The same measure, in the same setting: for YGSFHQQYWLDGKIIAVGMIDILP [V19M] the value was 2.91.
The same measure, in the same setting: as for YGSFHQQYWLDGKIIAVGRIDILP [V19R], the figure is 2.92; as for YGSFHQQYWLDGKIIAVGIIDILP [V19I], 2.64; as for YGSFHQQYWLDGKIIAVGYIDILP [V19Y], 2.91.
YGSFHQQYWLDGKIIAVGEIDILP [V19E]: the protein stability index was found to be 1.71.
For YGSFHQQYWLDGKIIAVGCIDILP [V19C], the protein stability index was 2.56.
Turning to YGSFHQQYWLDGKIIAVGFIDILP [V19F], the protein stability index amounted to 3.06.
Take YGSFHQQYWLDGKIIAVGDIDILP [V19D]: the protein stability index is 3.87.
On the same count and under the same terms, for YGSFHQQYWLDGKIIAVGLIDILP [V19L] the value was 2.41.
Still for that read-out and setting: as for YGSFHQQYWLDGKIIAVGTIDILP [V19T], the figure is 2.49; as for YGSFHQQYWLDGKIIAVGSIDILP [V19S], 2.97.
The same measure, in the same setting: for YGSFHQQYWLDGKIIAVGAIDILP [V19A] the value was 2.67; for YGSFHQQYWLDGKIIAVGQIDILP [V19Q], 2.97.
On to YGSFHQQYWLDGKIIAVGPIDILP [V19P], for which the protein stability index is 3.09.
As for YGSFHQQYWLDGKIIAVGWIDILP [V19W], the protein stability index was 2.06.
Still for that read-out and setting: for YGSFHQQYWLDGKIIAVGKIDILP [V19K] the value was 1.77; for YGSFHQQYWLDGKIGAVGVIDILP [I15G], 3.26.
Still for that read-out and setting: for YGSFHQQYWLDGKITAVGVIDILP [I15T] the value was 3.23; for YGSFHQQYWLDGKILAVGVIDILP [I15L], 2.75; for YGSFHQQYWLDGKIKAVGVIDILP [I15K], 1.79.
The same measure, in the same setting: as for YGSFHQQYWLDGKISAVGVIDILP [I15S], the figure is 2.5; as for YGSFHQQYWLDGKIHAVGVIDILP [I15H], 3.57; as for YGSFHQQYWLDGKICAVGVIDILP [I15C], 1.53.
For YGSFHQQYWLDGKIVAVGVIDILP [I15V], the protein stability index worked out at 4.05.
Take YGSFHQQYWLDGKIEAVGVIDILP [I15E]: the protein stability index is 3.12.
Same read-out and setting: as for YGSFHQQYWLDGKINAVGVIDILP [I15N], the figure is 2.59; as for YGSFHQQYWLDGKIYAVGVIDILP [I15Y], 2.45; as for YGSFHQQYWLDGKIDAVGVIDILP [I15D], 2.53.
Still for that read-out and setting: as for YGSFHQQYWLDGKIFAVGVIDILP [I15F], the figure is 2.83; as for YGSFHQQYWLDGKIMAVGVIDILP [I15M], 2.51.
YGSFHQQYWLDGKIAAVGVIDILP [I15A]: the protein stability index came to 2.57.
On the same count and under the same terms, as for YGSFHQQYWLDGKIRAVGVIDILP [I15R], the figure is 1.91.

In another data set the parent is B2. The data set is described as above. Conditions: c terminus: a fixed tail appended.
For the variant MKASMRELGLLIFFLFIGVILFSS [L1M], the protein stability index is 2.27.
As for NKASMRELGLLIFFLFIGVILFSS [L1N], the protein stability index is 2.84.
As to GKASMRELGLLIFFLFIGVILFSS [L1G], the protein stability index was 3.
On the same count and under the same terms, as for PKASMRELGLLIFFLFIGVILFSS [L1P], the figure is 1.82; as for EKASMRELGLLIFFLFIGVILFSS [L1E], 1.93.
Consider CKASMRELGLLIFFLFIGVILFSS [L1C], for which the protein stability index is 2.3.
For IKASMRELGLLIFFLFIGVILFSS [L1I], the protein stability index was found to be 2.29.
In the case of SKASMRELGLLIFFLFIGVILFSS [L1S], the protein stability index is 1.05.
Consider KKASMRELGLLIFFLFIGVILFSS [L1K], for which the protein stability index came out at 1.58.
As to TKASMRELGLLIFFLFIGVILFSS [L1T], the protein stability index was determined as 1.84.
Consider FKASMRELGLLIFFLFIGVILFSS [L1F], for which the protein stability index was determined as 2.12.
On the same count and under the same terms, for RKASMRELGLLIFFLFIGVILFSS [L1R] the value was 1.4; for HKASMRELGLLIFFLFIGVILFSS [L1H], 3.89.
The same measure, in the same setting: as for VKASMRELGLLIFFLFIGVILFSS [L1V], the figure is 1.88; as for DKASMRELGLLIFFLFIGVILFSS [L1D], 3.09; as for AKASMRELGLLIFFLFIGVILFSS [L1A], 2.05.
For QKASMRELGLLIFFLFIGVILFSS [L1Q], the protein stability index was 2.04.
